The nanobody polyreactivity screen of Harvey et al. (2022)

Experiment: yeast display, Sf9 membrane polyspecificity reagent, FACS + sequencing; frameworks hold sequencing errors
How it was run: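 Polyreactivity labels are assigned by the sorting gate from which each nanobody was recovered. The gates were low and high (top ~1%), set on anti-HA fluorescence for expression and streptavidin fluorescence for reagent binding. Before sorting, galactose-induced (36–48 hours) yeast display cells were stained for 1 hour at 4 °C with 10% biotinylated, detergent-solubilized Sf9 membrane reagent.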

Sequence | polyreactivity (PSR sort gate)
QVHLVESGGGLVQAGGSLSFSCAASGSNFTFNTMVWYRQAPGKEREKVATISSGGRTYYADSVKGRFTISRDNAKNTVYLQMNSLKPEDTPVFYCNKGYYGYTYVEYNYWGQGTPVTVSS | low polyreactivity
QVQLVESGAGLGQAGGSLRLSCAASGSNDIYAMGWNRQEPGKEREFVAAISYSSGSTYYADSVKGRFTISRDNAKNTVFLQMNSLIPVDTAVYYCAAVWQAGVYRYYYWGQGTQVTVSS | high polyreactivity
QVQLEESGGGLVQAGGSLRLSCAASGFTFRRYDMGWYRQAPGKERELVATINRGGSTDSADSVKGRFTISRDNAKNTVYLQMNSLKPEDTAVYYCATRYYSSRTWSEYYYWGQGTQVTVSS | high polyreactivity
QVQLVESGGGLVQAGGSLRLSCAASGFTFRAYAMGSYRQAPGKERELVAAISTGGGSTYYADSVKGRFTISRDNAKNTVYLQMNSLKPEDTAVYYCNALPQRRYYYWGQGTQVTVSS | high polyreactivity
QVQLVESGGGLVQAGGSLRLSCGASGSTSDIYAMGWYRQAPGKESEFGAAISLTGGTTYYADSVKGRFTISCENAKNTVYLQMNSLKQEDTAVYYCNADVGWWGYDDDYWGQGTQVTVSS | high polyreactivity
QVQLVESGGGLVQAGGSLRFSCAASGFTFSHYAMGWYRQAPGQERELVAAITWSGGSTYYADSVKGRFTISRDNEKNTVYLQLNSVKPEDTAVYYCAAESYRDGVDYWGQGTQVTVSS | high polyreactivity
QVQLVESGGGLVQAGGSLRLSCAASGITFGYYAMGWYRQAPGKERELVAAISSSGGSTYYADSVKGRFTISRDNAKNTVYLQMNSLKPEDTAVYFCAARYRKYSWYDYWGQGTQVTVSS | high polyreactivity
QVQLVESGGGLVQAGGSLRLSCAASGSTFYRYTMGWYRQAPGKERELVAAITRSSGSTYYADSVKGRFTISRDNEKNTVYLQMNCLKPEDTAVYYCAAYVGGDRGFDYWGQGTQVTVSS | high polyreactivity
QVHLVESGGGLVQAGGSLRLSCAASGFIFLPYAMGSYRQAPGKERELVAAITRGGRTYYADSVKGRFTISRDNAKNTVYLQMNSLKPEDTAVYYCAAVVWAPFYEFYYWGQGTQVTVSS | low polyreactivity
QVQLVESGGGLVQAGGSLRLSCAASGRIFARYAMGWYRQAPGTERELVASITRSGGSTYYADSVKGRFTISRDNAKNTVYLQMNSLKPEDTAVYYCAARYGRVRDVIPYDYWGQGTQVTVSS | high polyreactivity
QVQLVESGGGLVQAGGSLRLSCAASGFTFYWYTMGGYRQAPGKDRELVAAISGSGGRTYYADSVKGRFTISRDNAKKTVYLQMNSLKPEDTAVYYCAARGRYAYPRYGYYPVNYWGQVTQVTVSS | high polyreactivity
QVQLVESGGGLVQAGGSLRLSCAASGRIFYYNAMGWYRQAPGKERELVAAINYRGGSTYYADSVKGRFTISRDNAKNTVYLQMNSLKPEDTAVYYCAARYWEDGSTYDYWGQGTQVTVSS | high polyreactivity
QVQLVESGGGLVQARGSLRLSCAASVGTFGSNNMGCYRQAPGKDRELVAAITSGVSTNYADSVKGRFTITRYIAKNTVYLQMNSLKPEDTAVNYSAAGTQAHAYVVRPIEMDYWGQGTQVTVSS | low polyreactivity
QVQLVESGGGLVQAGGSLSLSCAASGRTLYLYTMGWYRQAPGKERELVASINWRGSTYYADSVKGRFTISRDNAKNTVYLQMNSLKPEDTAVYYCNVGGPSGGMYYWGQGTQVTVSS | low polyreactivity
QVQLVESGGGLFQAGGSLRLSCASSGSIFLIYAMGWYRQAPGKERELVAAITQRGGSTYYADSVKGRFTISRDNAKISVYLQMESLKPEDTAVYYCNARRYVMRYNRFYYWGQGTQVTVSS | high polyreactivity
QVQLVDSGGGLVQAGGRLRLSCAASGFIYEPNAMGGYRQAPGKEMELVAAISSGGSTYADSVKGRFTISRDNAKNTVYLQMNSLKPEDTAVYYCAADSYYSVWGFYYWGQGTQVTVSS | low polyreactivity
QVQLVESGGGLVQAGGSLRLSCAASGIIFEGYAMGWYRQAPGKERELVAAISQSGGSTRYADSVKGRFTISRDNAKNTVYLQMNSLKPEDTAVYYCAKLSLSWDGYYQYDYWGQGTQVTVSS | low polyreactivity
QVQLVESGGGLVQAGGSRRLTCAASGFTFEYYAMGWYRQAPGTERELVAAISYSGSSTYYADSVKGRFTISRDNAKNTVYLQMNSLKPEDTAVYYCAARAVSRRFDYWGQGTQVTVSS | high polyreactivity
QVQLVESGGGLVQAGGSLRLSCAASGNTFGFNTMGWYRQAPGKERELVAAISKSGTRTFYADSVKGRFTISRDNAKNTVYLQMNSLKPEDTAVYYCAAVAKGGNWPAQGGGHDYWGQGTQVTVSS | high polyreactivity
QVQLVESGGGLVQAGGSLRISCAASGRTLRPNAMGWYRQAPGKERELVAAITWSGGRTYYADSVKGRFTISRDNAKNTVYLQMNSLKPGDTAVYYCAADYGYYRGGVYFQKLKFDYWGQGTQVTVSS | high polyreactivity
QVQLVESGGGLVQAGGSLRLSCAASGSTFPFYAMGWYRQAPGKERELVATISSDGSTNYADSVKGRFTISRDNAKNTDYLQMNSLKPEDTAVYYCNALARWCAYYDYGYWGQGTQVTVSS | low polyreactivity
QVQLVESGGGLVQAGGSLRLTCAASGRTLAWYTMGWYRQAPGKERELVAAISGSGGSTYYADSVKGRFTISRDNAKNTVYFQINRLKPEDTAVYYCSLRVDSYYGHTRYYYWGQGTQVTLSS | high polyreactivity

Sequence | polyreactivity (PSR sort gate)
QVQLVESGGGLVQAGGSLRISCAASGRIFDLYAMGWYRQPPGKERELVASISSDGSTNYADSVKGRFTISRDNAKNTVYLQMNSLKPEDTAVYYCATRKGRRYGYNYWGQGTQVTVSS | high polyreactivity
QVQLVESGGGLVQAGGSLRLSCAASGFTFSRNAMGWYRQAPGKERELVAAITWSGGRTYYADSVKGRFTLSRDNAKNTVYLQMNSLKPEDTAVYYCAARKYHLRSAYDYWGHGTQVTVSS | low polyreactivity
QVHLVESGGGLVQAGGSLRLSCAASGSIFGGYGMGWYRQAPGKEREMVAAITSGSSTYYADSVKGPFTISRDNAKNSVYFQLNSLKPEDTAVYYCAARPYPHSAYEGDYWGRGTQVTVSS | low polyreactivity
QVQHVESGGGLVQAGGSLRLSCAASGIIFFKNAMGWYRQAPGKERELVAAISSTDTRTYYADSVKGRFTISRDNAKNTVYLQMNSLKPEDTAVYYCAASRRGGGLDYWGQGTQVTVSS | high polyreactivity
QVQLVESGAGLVQAGGSLRLSCAASGNIFVEYAKGWYRQAPGKERELVAAITNTGGRTHYADSVKGRFTISRDNAKNTVYFQMNSLKPEDTAVYDCASRRTGYYGTRDYWGQVTQVTVSS | high polyreactivity
QVQLVESGGGLVQAGGSLRLSCAASGRTFTFYAMGWYRQAPGKERELVAAITWSGGSTYYADSVKGRFTISRDNAKNTVYLQRNSLKPEDTAVYYCAKLDVISDDLDYWGQGTQVTVSS | low polyreactivity
QVQLVESGGGLVQAGGSLRLSCAASGRIFGNYAMGWYRQAPGKERELVASISRRGGSTYYADSVKGRFTISRDNAKNTVYLQMIRLKPEDTAVYYCATLRGRLRFGYDYWGQGTQVTVSS | high polyreactivity
QVQHVESGGGLVQAGGSLRLSCAASGSTLGGYAMGWSRQAPGKERELVAAISGSGGSTYYADSVKGRFTISRDNAKNSVYLQMNSLKPEDTAVYYCNAAVLGGIYRYYDYRYDYWGQGTQLTVSS | low polyreactivity
QVQLVESGGGLVQAGGSLRLSCAASVRTFYIYAMGWYRQAPGKERELDAAITWSGGTTYYADSVKGRFTISRDIAINTVYLQMNSLKPEDTAVYYCAADRYGFYLESYYCGQGTQVTVSS | low polyreactivity
QVQLVESGGGLVQAGGSLRLSCAASGSIFDYNPMGWYTQAPGKERELVADITSGGSTYYADSVKGRFTISRDNAKNTVYLQMNSLKPEDTAVYYCNADDAVEYSYGGGTEFYYWGQGTQVSVSS | low polyreactivity
QVQLVESGGGLVHAGGSLRLSCAASGFTFGQYAMGWYRQAPGKERELVAAIRSGGSTNYADSVKGRFTISRDNAKNTVYLQMNSLKPEDTAVYYCAAGYRRGWVTMGYWGQGTQVTVSS | high polyreactivity
QVQLVESGGGLVQAGGSLRLSCAAARYAMGWYRQAPGKERELVAAISKSGGSTYYADSVKGRFTISRDNAKNTVYLQMNSLKPEDTAVYYCAARGHAGRGEYYYWGQGTQVTVSS | high polyreactivity
QVQLVESGGGLVQAGGSLRLSCAASGFTFRFNAMGWYRQAPGKERELVAAIRYSSGSTYYADSVKGRFTISRDNAKNTVYLEMNSLKPEDTAVYYCAAEQDYNRGYVTGRYYYWGQGTQVTVSS | high polyreactivity
QGQLVDSGGGLVQAAGSLRLSCDASGRTFVYNDMGWYRQAPGKERELVATISVSGCSTYYADSVKGRFTISRDNAKNTVYLQMISLKPEDTAVYYCAARRTWYEDHDYWGQGTQVTVSS | low polyreactivity
QVQLVESGGGLVQAGGSLRLSCAASGFTFASNDMGWYRPAPGKERELVAAITKGGGRTYYADSVKGRFTISRDNAKNTVYLLMNSLKPEDTAVYYCAASQLIKYDYWGQGTEVTVSS | low polyreactivity
QVQLVESGGGLVQAGGSLRLSCAASGRIFTWSTMGWYRQAAGTERELVAAINRGGSTTYADSVKGRFTISRDNAKNTVYLQMNSLKPEDTAVYYCAAYRSTSRVYSNWRGYDYWGQGTQVTVSS | high polyreactivity
QVQLVESGGGLVQAGGSLRLSCAASGFTVSYYVMGWYRQAPGKERELVAGISWSGVSTYYADSVKGRFTISRDNAKNTVYLQMNSLKPEDTAVYYCAAGYDFSFFVPVRYTEYDYWGQGTQVTVSS | high polyreactivity
QVQLVESGGGLVQAGGSLRLSCAASGRIFAYYAMGWYRQAPGKERELVAAITSDGSSTYYADSVKGRFTISRDNAKNTVYLQMNSLKPEDTAVDYCAAGTYPFWDWIFDLWVDYWGQGTQVTVSS | high polyreactivity
QVQLVESGGGLVQAGGSLRLSCAASGFTFARYAMGWYRQAPGKERELVAAISRGTTTYYADSVKGRFTISRDNAKNTVYLQMNSLKPEDTAVYYCAARAVSEYFVVPFYYWGQGTQVTVSS | high polyreactivity
QVQLVESGGGLVQAGGSLRLSCAASGSIFWTYAMGWYRQAPGKERELVAAITTGGSTYYADSVKGRFTISRDNAKNTVYLQMNSLKPEDTAVYYCAVDHLTRSGDGEYWGQGTQVTVSS | high polyreactivity
QVQLVESGGGLVQAGGSLPLSCAASGSTFTYYAMGWYRKAPGKEGELVARITWTGGRTYYADSVKGRFTISRGNAKNTVYLQMNSVKTEDTAVYYCNALPYFFETQYDYWGQGTQVTVSS | low polyreactivity
